According to the DeepSol protein solubility set:

assay: soluble on expression in E. coli; label from the status in PepcDB or PDB records

**Q.** Which “soluble on expression in E. coli” value does the source give for “MGSDKIHHHHHHMLDENEDIHPLFAGAPATTEFKKLRKRIVRYTREAIEQYGMVERRADGSTPKWLVCLSGGKDSYTLLAVLYELKWRGLLPVDLLACNLDQGQPGFPSTVLPEFLDRMGVPNRIEYQDTYSVVVDKVPQGRTYCALCSRLRRGNLYRIAREEGCSAVVLGHHRDDILETFFMNLFHGGRLATMPPKLVNEEGDLFVFRPLAHVAEADCEKFARAMNYPIIPCDLCGSQDGLQRQQVKQILDGWEKNRPGRRQVMFRALMNARPSHLLDPKLFDFQGLELGSREKGENFGEIPLLR” here?
**A.** not soluble

**Q.** With “MGSDKIHHHHHHMLDPRSVPFAAQIHPQARPARRLTWDSREAGPDTAFVALPGEKMHGNRFVERALAAGAPFVLTDLDVPRAVRVDDARGALFAWARSERAKNPLVVGITGSAGKTTAKSYAAAALDAHFMPVFNTMPAIACFLVQYGASQKPLVVEMGIDHIGEMAELMDLVRPDVGVVTTIGPAHLEQFGMVETIAHEKGQILTARRALVGSQAAAFFPKAQFPHVDSYGFGDVTFRGEGLELSPQAARFRFGGMGVILPLASRVQAEAAVLGMVLAREAGIALADAAVRMSAVEVPGGRYRLHPGRFTVIDDAYNASPVAVRAALDALHALKPEGEVGRRISVLGRMLELGPTERELHAEVGSYAREQADLTYGVGEFAQELGERAFATVPELLADLLNEVRDGDIVLVKASRGISLTPEQRAVTGVGLDVVVEALLDQRDR” as the sequence, how does the “soluble on expression in E. coli” value read?
**A.** not soluble

**Q.** For “MGSDKIHHHHHHMLEQFHIHADLKQQLSTIHEKNKQEAGENAHLIGTKIYKASDNSIIEDAITALLLGKNILLKGPTGSGKTVLAETLSSLFQKPMHSINCSVDLDVEGILGYNTLQTKDGASEVAFVNGPLMKAMKNGHFLYIDEINMAKPETLPLLHGALDYRKMITNPFTQEVVYGDDEYRVIAAINEGYVGTSELNEALKNRFVIIEVPYIQGDTLKELLLAESKLNDVTTIEKFVAFASDLMPLARDGRVSEEAASIRGIIDACDLGVYIPVMRAIERSIIAKLNDETEQMTVRELAESYFFEG”, which “soluble on expression in E. coli” value is on record?
**A.** not soluble

**Q.** For “MGSDKIHHHHHHMLFFINLTLKRGLTTLLENANATINPGQKVGLVGKNGCGKSSLFALLKNEMSAEGGEMSFPPNWALAWVNQETPSLDCRAIDYVIQGDREYSRLQQVLQQANTANDGNAIAVLHNQLDAIDAWTIEARAGELLHGLGFTQAELEQPVKAFSGGWRMRLNLAQALICRSDLLLLDEPTNHLDLDAVIWLERWLKQYPGTLILISHDRDFLDPIVGKILHIEQQKLNEYTGDYSSFEQQRATKLAQQNAMYRQQQLKIDHLQRYIDRFKAKATKAKQAQSRIKALERMEKIAPAYVDNPFHFEFREPLSLPNPLLMMENASVGYGEGEKSAVEILSKIKLNLVPGSRIGLLGKNGAGKSTLIKLLAGEIAPTGGTIQLAKGVQLGYFVQHQLDTLRADESALWHLQKIAPQQTEQQLRDYLGGFAFHGDKVNQPVASFSGGEKARLVLALIVWQRPNLLLLDEPTNHLDFRYASGVNGSLGGLSGLFGVGVARSPFIA”, which “soluble on expression in E. coli” value is on record?
**A.** not soluble

**Q.** Which “soluble on expression in E. coli” value does the source give for “MGSDKIHHHHHHMLKLCGFAASNYYNKVKLALLEKNVPFEEVLAWIGETDTTATPAGKVPYMITESGSLCESEVINEYLEAAYPQTPLLPRDPMQAGKVREIVTFLELYLELTARELYPEAFFGGKVSDNVKERQLKLLSRYVPAFAKLAKFSPYVAGDTFTLADCAAAVHLPLVSSCTKIIYGKDLLADLPVKEYLKTLSERPSVQKVNADRKANTELMLSRNK” here?
**A.** not soluble

**Q.** Which “soluble on expression in E. coli” value does the source give for “MGSDKIHHHHHHMLLDYDVALEDDFQQFIKQIPAPVRALLDSADPVARHQRQAVYTLFGIPGRPATMTPLVEALAMVSTLDTPSFAPTPTINDLALSKAHAYASQYLLQQFIRTVSHTTMLPPANRHELLTAAQSLPLANLNRLRLNFNQRERIADFLKDTKDRPAKLTSLSGYLATSLAGLDPAICGLARAIGESVGIVLTILTDVQVTRQIADFRERLLMGNYPLPLLFGFENDPGYFYDFFHQAHKPTADQFVATQQRVLMIGVAPALTMANELVDQARLDSQQLPTDLKKRVEQALTRLAAATAQPH” here?
**A.** not soluble

**Q.** With “MGSDKIHHHHHHMLLSRVAESLYWINRYLERAENISRFVEVSESMALDCPPGSAEPWLPLVDASGDRNKFDESYLNKTPSDVANFLIKDRENPNSILSCICMARENARQIRDVITSEMWEQINSLYWSIQEGEVIWHQPAQEQLFEIRRGCQLFYGVTDATFSHDIAWNFSKLGRLIERADKTSRILDVKYFLLLPNLKELGGALDELQWISLLRSAGAYQMFRISEQGSITPNAIASFLLLDPIFPRSVRFCLEGINESLSKIQNSPVSKKPNDLECLIGLLLSKWSFVRIDHLIKDGLHEAIDSLQIDLNKLHDLIHGIYFRNDKKFDFESLQG” as the sequence, how does the “soluble on expression in E. coli” value read?
**A.** not soluble

**Q.** For “MGSDKIHHHHHHMLMGSKDKVISILKEKGPISQTELSKLSGLSKSRLSEVLSELEKQGIVKRRKVLGKNLEVSLSQDRFLRLGIIRAAEYPFIIPFIKNLENRGYSVTVKIYENGIDLTRDLVEAKLDLGLSPIITQIIFSTIYRNIRIIGGGAKGGGGIIGKTCNRIASTVMSSMEIWAFSEFKNIEIIPSYSSYEMLDFLEKGIVDGIAIWEPFLSILERKGHKVHRFTPLHCCTLAVRETMDWERIKNIYEESFSWFKSSIDRWVSSYSNLLNIDYNILKEASKNYEFDYYLDLKEFKNSLKNTGIFIPI”, which “soluble on expression in E. coli” value is on record?
**A.** not soluble

**Q.** Which “soluble on expression in E. coli” value does the source give for “MGSDKIHHHHHHMLNFSLTPNAKILSKDADSYPYMYRNYPFLRPWVDSLKQVNALKDTFIINPQGIQLHAFYITAPAPTSKTAVIVHGYTDNAIRMFMIGYLYNRDLGYNILLPDLQHQGESEGRAIQMGWKDRIDVLQWMNIANEIFGDSTQMVVHGISMGGATTMMVSGEKQQPYVKCFVEDCGYTSVWDEFSHELKSSFHLPAFPLMYTTSWLCEKKYGWNFKEASSLKQVEKCELPMLFIHGDKDTYVPTWMVYPLYEAKPEPKELWIVPGAAHALSYKENKQEYTDKVRDFVGRYIH” here?
**A.** not soluble

**Q.** For “MGSDKIHHHHHHMLNSDLDIRLEPRIKELYRLHKERSANIDWSYHEFIPWDKAMSFKRVPWEESQVTLPEGVIVAVETALLTEVNLPWYTSHLDYTFKNSMEVINDFVRTWTAEEDQHSSLLETYLLVTRNVNPTRLHQLRRRVVESGWFPDFTNPLATMAYTSLQELATLVFYNNVARVAGAHDKDLATLLRRLAKDEALHYAFYRDTVKAHLELDPNFIVFFEDVIINFSMPGAIMPDFTERMKTIAIDTNYGPLQYFDQVLDVVVKYWDIENLQPTSEEAKQSQANIMKYHGRLKRIKDRQSAKNKIDA”, which “soluble on expression in E. coli” value is on record?
**A.** not soluble

**Q.** Which “soluble on expression in E. coli” value does the source give for “MGSDKIHHHHHHMLNSLSIFEQAIRALPIDRSLTRQDLFIDGFLLQQEQELSVYYSPIGEYINRSAKIVFIGITPGFEQMRLAYEEAADAFHHGATIEETSKLVKYSASFAGPMRRNLTAMLDELELHRLLNIASTATLFHTNQELLHTTSILRHPVFYRDKNYTGHQPKIDRTPLLQHYAYEHFAAELNQLPDPVILVPFGRVVESTVRTLLHQGRIKKHTVLFGFPHPSGANGHRKRQFEENKDYLMKQLNSYFNT” here?
**A.** not soluble

**Q.** Which “soluble on expression in E. coli” value does the source give for “MGSDKIHHHHHHMLPLDSLSDCASKSYLLTHLPDLNHRHLSSSVSTNSELIAAVQDGTLNATAMHLLTAETQSAGRGQHGRSWQSPRGNVYLSLYHPVHIPISGLLSLIIGVELAKMPIIQTLNDQLCAQGLTPIGVKWANDLGFYSYQYHHQSELHKILLANEMTPFHKLAGILIEPVTQAGKLVGIVMGVGLNVQATPKLTAQTCEGMSYQAISLQDIKQLLEPDKSASALLSLRELYQQMSKALMAAMTRFEHLGLEKPTGQTYNLDSFLKQFDSMDALAGLRLRITQEHNGQTETLTGYACGIDTHGCLQLRQDNGNISALFTGRIDVIDNA” here?
**A.** not soluble

**Q.** With “MGSDKIHHHHHHMLSRQGEYKSWEITEAVLPVASNQEEAKNILTDTNVATITKFYGRYQDFMEMPAPAEKVAEYLNAHALWFSRCAEPMKVQLLGENGYALVIGRFGAFGYEVEPKIGLELLPPEEGIYRIRTIPIPDYQSPGYDVDYRASLQLIENDACSSGEVTRVEWELDLIVDLHFPRFIQRLPKSIIQSTGDRLLNQIVRQVSRRLTRKVQQDFQKSLEIPFSGNSKQKR” as the sequence, how does the “soluble on expression in E. coli” value read?
**A.** not soluble

**Q.** For “MGSDKIHHHHHHMLTHSTNPRGGVVHAMQLSEALTALGHAVTLHAPDPKGTGFFRSPACGAACFPVPPALADMTALVEQRIADYIGHFEQADNRDFDVFHAHDGISGNALATLKSRGLIPSFVRTIHHIDQFEDPRLMVLQDRSIQRADAFLAVSAAWQAILRDSYGVDAKVVGNGVDNRRFSPAWSGEQTALRDRIGLHAGAVFLSIGGIEARKNTLGILDAFRQLRAVKPDAQLVIAGGVSLLDHRDYQEEFQSHLRALRDDAAAVHIIGAVSDDDMPNLYRLADALVFPSLKEGFGLVVLEAMASGVPAIVPSIAPFIDYLSGDDALWCDPLHSASIAEAMALALVPEIRERIIPRGLEVASRFTWRRVAEAHLSTYATLKEAAHA”, which “soluble on expression in E. coli” value is on record?
**A.** not soluble

**Q.** Which “soluble on expression in E. coli” value does the source give for “MGSDKIHHHHHHMLTSVFGISIKYEAWNHQDSLPVYIAGSYDFHTAYIGNRRCIMLAPTEELATLPALKKQIVKIQQIDNVPVVFELTTVSNYRRKSLIENNIPFITDKQVFLPFIGTMLSDEKEPQKLTGKFVYSTQQLFLFYLYSKKKRLYTSEAGKVLPFTAMTLTRAVKQLETTDLFLVAKDGVNKFIESKYKRDELFEKAKVYLTTPVRKTGYIDKTQVTENMVFAGETALSEKTMLNPSRVVTYAISEKDYDKSLLTDELIDPDKQVRLELWAYNPKQFSEDNSADDISLVLSFKDTNDERIEEAVDELQERRLHE” here?
**A.** not soluble

**Q.** With “MGSDKIHHHHHHMLYFQNAFSLRGTHDAIIVGIFEGHEPLVAELKQLDETLNGHLSTLVKQKQLKTEAGKITELYTFGLIETKWVLAVGLGKRSDASADTLRAGFAAVGERVKEKRMTNVTVVLPSFVSERVSEQEVARLFGESFTMGYSTIDDYKERTNLVDKSLNSVTVFHGHRPVETGIREGIAYGNGSVYAERLMSIPRTLLSPTELVTEAQALANRHGFDTETLEQKELEKLGMGGLLAASGPAENATMIVLKNKGKREEREVIGLIGAGGNGIFSPWMGGAAAVLGAMDIIGSLHSQKNVLAILPIVEQEQGQPKPMPGDVIRSYSGKTIEVDHIEAVGALLLADGITYAKELGVHSLVTVAPLAEELRSILGDKFTAAVTNDESWLKKMQEASLKSGEPIWTLPYYRPYKKRLQEESVADLRLTIGRFANCMATALFVGEFAENDPWVHLDIAGTVARARGIMVRTLAAFVLNNGERELR” as the sequence, how does the “soluble on expression in E. coli” value read?
**A.** not soluble

**Q.** For “MGSDKIHHHHHHMMEEYLGVFVDETKEYLQNLNDTLLELEKNPEDMELINEAFRALHTLKGMAGTMGFSSMAKLCHTLENILDKARNSEIKITSDLLDKIFAGVDMITRMVDKIVSEGSDDIGENIDVFSDTIKSFASSGKEKPSEIKNETETKGEEEHKGESTSNEEVVVLPEEVAHVLQEARNKGFKTFYIKVILKEGTQLKSARIYLVFHKLEELKCEVVRTIPSVEEIEEEKFENEVELFVISPVDLEKLSEALSSIADIERVIIKEVTAVTEESGAEKRTEKEEKTEKTEEKAERKKVISQTVRVDIEKLDNLMDLMGELVIARSRILETLKKYNIKELDESLSHLSRITLDLQNVVMKIRMVPISFVFNRFPRMVRDLAKKMNKEVNFIMRGEDTELDRTFVEEIGEPLLHLLRNAIDHGIEPKEERIAKGKPPIGTLILSARHEGNNVVIEVEDDGRGIDKEKIIRKAIEKGLIDESKAATLSDQEILNFLFVPGFSTKEKVSEVSGRGVGMDVVKNVVESLNGSISIESEKDKGTKVTIRLPLTLAIIQALLVKVNNLVYAIPIANIDTILSISKEDIQRVQDRDVIVIRGEVIPVYRLWEVLQIEHKEELEEMEAVIVRVGNRKYGIVVDDLLGQDDIVIKSLGKVFSEVKEFSGAAILGDGSIALIINVSGIV”, which “soluble on expression in E. coli” value is on record?
**A.** not soluble
